Article PMC3139607

What was measured:
[1] = molecular target: two-domain (2D) soluble CD4 (amino acids 1 to 183) (human); test: ELISA; hybridoma culture supernatants diluted 1:1 on solid-phase 2D-CD4, gp120 (Ba-L) or the 2D-CD4/gp120 (Ba-L) complex; values qualitative
[2] = molecular target: 2D-CD4-gp120 (Ba-L) complex (human | HIV-1 isolate Ba-L); test: as above

B1: MAb DB81 (antibody, V domains shown)
VH: EVQLQQSGPELVKPGASVKISCKASGYSFTDYTMLWVKQSHGKSLEWIGNINPYYDTTTYNLNFKGKATMTVDKSSSTAYMQLNSLTSEDSAVYYCAREGDYGHPFAYWGQGTLVTVSS
VL: DIVMTQSHKFMSTSVGDRVSITCKASQDVSTTVAWYQQKPGQSPKLLIYSASYRYTGVPDRFTGSGSGTDFTFTISSVQAEDLAVYYCQQHYSTPPTFGGGTKLEIR
[1]
  Binding to CD4 (ELISA reading): 1.23
[2]
  Binding to CD4-gp120 (ELISA reading): 2
